From publication PMC3684361

Molecular target: TET2 catalytic domain (TET2CD: a.a. 916-1921), recombinant from Sf9
Assay: pull-down

B1: OGT, full-length, recombinant from Sf9 (enzyme)
chain: MASSVGNVADSTEPTKRMLSFQGLAELAHREYQAGDFEAAERHCMQLWRQEPDNTGVLLLLSSIHFQCRRLDRSAHFSTLAIKQNPLLAEAYSNLGNVYKERGQLQEAIEHYRHALRLKPDFIDGYINLAAALVAAGDMEGAVQAYVSALQYNPDLYCVRSDLGNLLKALGRLEEAKACYLKAIETQPNFAVAWSNLGCVFNAQGEIWLAIHHFEKAVTLDPNFLDAYINLGNVLKEARIFDRAVAAYLRALSLSPNHAVVHGNLACVYYEQGLIDLAIDTYRRAIELQPHFPDAYCNLANALKEKGSVAEAEDCYNTALRLCPTHADSLNNLANIKREQGNIEEAVRLYRKALEVFPEFAAAHSNLASVLQQQGKLQEALMHYKEAIRISPTFADAYSNMGNTLKEMQDVQGALQCYTRAIQINPAFADAHSNLASIHKDSGNIPEAIASYRTALKLKPDFPDAYCNLAHCLQIVCDWTDYDERMKKLVSIVADQLEKNRLPSVHPHHSMLYPLSHGFRKAIAERHGNLCLDKINVLHKPPYEHPKDLKLSDGRLRVGYVSSDFGNHPTSHLMQSIPGMHNPDKFEVFCYALSPDDGTNFRVKVMAEANHFIDLSQIPCNGKAADRIHQDGIHILVNMNGYTKGARNELFALRPAPIQAMWLGYPGTSGALFMDYIITDQETSPAEVAEQYSEKLAYMPHTFFIGDHANMFPHLKKKAVIDFKSNGHIYDNRIVLNGIDLKAFLDSLPDVKIVKMKCPDGGDNADSSNTALNMPVIPMNTIAEAVIEMINRGQIQITINGFSISNGLATTQINNKAATGEEVPRTIIVTTRSQYGLPEDAIVYCNFNQLYKIDPSTLQMWANILKRVPNSVLWLLRFPAVGEPNIQQYAQNMGLPQNRIIFSPVAPKEEHVRRGQLADVCLDTPLCNGHTTGMDVLWAGTPMVTMPGETLASRVAASQLTCLGCLELIAKNRQEYEDIAVKLGTDLEYLKKVRGKVWKQRISSPLFNTKQYTMELERLYLQMWEHYAAGNKPDHMIKPVEVTESA
- stoichiometry N: 1
